The values below are quoted from earlier work in article PMC3437440.

One may read the Kd as the equilibrium constant for the complex coming apart.

The target of this series is IgG1 Fc Fc (Homo sapiens) [IgG part: P01857].

Chain of FcγRIIIa (Val158 variant) (P08637 17-254, change not shown): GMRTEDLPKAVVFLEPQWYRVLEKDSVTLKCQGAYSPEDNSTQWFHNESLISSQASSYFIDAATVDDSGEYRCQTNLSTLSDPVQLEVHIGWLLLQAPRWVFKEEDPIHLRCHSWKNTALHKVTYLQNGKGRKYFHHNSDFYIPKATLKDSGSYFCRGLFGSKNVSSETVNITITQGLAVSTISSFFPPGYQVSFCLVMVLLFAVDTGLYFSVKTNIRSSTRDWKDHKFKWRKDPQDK

Take “FcγRIIIa (Val158 variant) (from UniProt P08637)”: the Kd was 100 nM.
